Assay in all cases: other fluorescence titration; change in Oregon Green 488 fluorescence intensity of the labeled SNARE complex as a function of α-SNAP concentration; fit y = Fmax·x/(KD + x); three independent experiments
Experiment [1] concerns the target all four ternary SNARE complexes.
Experiment [2] concerns the target T1, VAMP7-syntaxin4-SNAP23 ternary SNARE complex, labeled with Oregon Green 488 (rat, UniProt Q9JHW5 1-190; Q08850 1-274; O70377 1-210, C21S | C56V | C141S | E257C | I261C, Oregon Green 488 (maleimide) on cysteines; the labeled endogenous and mutant cysteines are shown in Figure 1A).
T1 construct: VAMP7, rat, residues 1-190; syntaxin4A, rat, residues 1-274; tag-free; SNAP23, rat; Removal of the His6 tag is told only for α-SNAP; also called VAMP7(1–190)-C21S/C56V-syntaxin4A(1–274)-C141S/E257C/I261C-SNAP23; source: E. coli BL21(DE3), coexpressed, purified (Ni-NTA, Superdex 200); copies: + +
T1 sequence (looked up) 1: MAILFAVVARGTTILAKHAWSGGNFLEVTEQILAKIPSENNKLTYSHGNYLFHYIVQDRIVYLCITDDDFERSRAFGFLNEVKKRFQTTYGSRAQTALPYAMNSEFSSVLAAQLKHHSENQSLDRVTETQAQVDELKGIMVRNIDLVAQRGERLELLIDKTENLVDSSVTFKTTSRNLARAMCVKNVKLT
T1 sequence (looked up) 2: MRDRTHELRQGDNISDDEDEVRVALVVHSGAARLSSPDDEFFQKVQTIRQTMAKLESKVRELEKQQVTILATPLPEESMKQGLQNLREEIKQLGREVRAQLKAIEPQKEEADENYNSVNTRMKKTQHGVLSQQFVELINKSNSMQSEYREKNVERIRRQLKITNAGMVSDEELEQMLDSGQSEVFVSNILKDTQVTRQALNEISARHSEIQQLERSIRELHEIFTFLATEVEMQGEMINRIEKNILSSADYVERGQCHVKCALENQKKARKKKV
T1 sequence (looked up) 3: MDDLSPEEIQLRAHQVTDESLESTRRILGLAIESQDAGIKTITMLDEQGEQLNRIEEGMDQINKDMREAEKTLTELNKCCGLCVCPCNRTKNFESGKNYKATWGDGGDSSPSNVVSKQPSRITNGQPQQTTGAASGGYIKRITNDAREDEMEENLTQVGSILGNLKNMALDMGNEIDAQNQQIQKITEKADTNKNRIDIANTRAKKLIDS
To be noted: both partners purified.

Experiment [3] has as its target T2, VAMP8-syntaxin4-SNAP23 ternary SNARE complex, labeled with Oregon Green 488 (rat, UniProt Q9WUF4 1-76; Q08850 1-274; O70377 1-210, I76C | C141S | E257C | I261C, Oregon Green 488 (maleimide) on cysteines; the labeled endogenous and mutant cysteines are shown in Figure 1A | Oregon Green 488 (maleimide) on cysteines; the labeled endogenous and mutant cysteines …).
T2 construct: VAMP8 (endobrevin), rat, residues 1-76; syntaxin4A, rat, residues 1-274; tag-free; SNAP23, rat; Removal of the His6 tag is told only for α-SNAP; also called VAMP8(1–76)-I76C-syntaxin4A(1–274)-C141S/E257C/I261C-SNAP23; source: E. coli BL21(DE3), coexpressed, purified (Ni-NTA, Superdex 200); copies: + +
T2 sequence (looked up) 1: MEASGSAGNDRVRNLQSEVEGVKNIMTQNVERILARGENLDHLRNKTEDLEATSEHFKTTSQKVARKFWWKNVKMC
T2 sequence (looked up) 2: T1 sequence (looked up) 2
T2 sequence (looked up) 3: T1 sequence (looked up) 3
The conditions noted are these: both partners purified.

B1: α-soluble NSF attachment protein (α-SNAP) (natural protein, rat, UniProt P54921 1-295, looked up)
chain: MDTSGKQAEAMALLAEAERKVKNSQSFFSGLFGGSSKIEEACEIYARAANMFKMAKNWSAAGNAFCQAAQLHLQLQSKHDAATCFVDAGNAFKKADPQEAINCLMRAIEIYTDMGRFTIAAKHHISIAEIYETELVDVEKAIAHYEQSADYYKGEESNSSANKCLLKVAGYAAQLEQYQKAIDIYEQVGTSAMDSPLLKYSAKDYFFKAALCHFCIDMLNAKLAVQKYEELFPAFSDSRECKLMKKLLEAHEEQNVDSYTESVKEYDSISRLDQWLTTMLLRIKKTIQGDEEDLR
notes: α-SNAP, rat; His6 tag removed with tobacco etch virus protease; source: E. coli BL21(DE3), purified (Ni-NTA, Superdex 200)
B1: in experiment [1], the Kd lay within 200 to 600 nM. Besides, the binding result in experiment [2] and in experiment [3] was “binds” in each case.

Usually Kd stands for the constant that tells how readily two partners part at equilibrium.

The values are drawn from publication PMC3750193, “Disassembly of All SNARE Complexes by N-Ethylmaleimide-sensitive Factor (NSF) Is Initiated by a Conserved 1:1 Interaction between α-Soluble NSF Attachment Protein (SNAP) and SNARE Complex*^([image sbox.jpg])” (The Journal of Biological Chemistry, 2013).
